Reference: patent US20250277054A1 (WUXI BIOLOGICS IRELAND, published 2025)

Legend:
[1] = molecular target: T1, Mouse PSMA.ECD.His (Acro) (mouse, UniProt O35409 45-752); experiment: ELISA, coated mouse PSMA protein (His tag)
T1 construct: extracellular domain; Bought protein with His tag; also called mouse PSMA protein (His tag); Mouse PSMA/FOLH1 protein, His tag
Experimental: Briefly, 2 μg/mL mouse PSMA protein (His tag) were coated onto well in ELISA plate in coating buffer for 16 hours in a refrigerator set to 4° C. After washing plate once time with 1×PBST, 200 μL/well 2% BSA were added into wells and incubated for one hour at ambient temperature. […] After washing six times with 1×PBST, 100 μL/well of TMB substrate solution were added into wells and incubated for 5 minutes in dark and then 100 μL/well of 2M HCL were added into wells to stop the reaction. The relative light unit (RLU) were measured at OD450 and OD540 by SPECTRAMAX M5E. EC50 was determined as described above.

Cyno PSMA.ECD.His (Acro) [2] = molecular target: T2, Cyno PSMA.ECD.His (Acro) (cynomolgus, UniProt A0A2K5VNZ0 44-750); experiment: ELISA, cynomolgus PSMA ECD captured by anti-His antibody
T2 construct: extracellular domain; Bought protein with His tag; also called cynomolgus PSMA ECD protein; Cynomolgus PSMA/FOLH1 protein, His tag
Experimental: Plate was pre-coated with 1 μg/mL THETM His Tag Antibody overnight in a refrigerator set to 4° C. After blocking with 200 μL of 1×PBS/2% BSA for 1 hour, the plates were washed with 1×PBST for three times, then 0.5 μg/mL cynomolgus PSMA ECD protein diluted in 1×PBS/2% BSA was added in a volume of 50 μL/well to the plate and incubated for 1 hour at ambient temperature. […] After washing the plates with 1×PBST for three times, 50 μL/well of HRP-labeled goat anti-human IgG antibody (1:5000 diluted in 1×PBS/2% BSA) were added into the plate and incubated for 1 hour at ambient temperature. After washing the plates with 1×PBST for six times, the color was developed by dispensing 50 μL/well of TMB substrate for 4-8 minutes, and then the reaction was stopped by adding 50 μL/well of 2M HCl. The absorbance was read at 450 nm using a microplate reader. EC50 was determined as described above.

[3] = molecular target: T3, Human PSMA.ECD.His (Acro) (human, UniProt Q04609 44-750); experiment: ELISA, human PSMA ECD captured by anti-His antibody
T3 construct: extracellular domain; Bought protein with His tag; also called human PSMA ECD protein; Human PSMA/FOLH1 protein, His tag
T3 sequence (Q04609 44-750): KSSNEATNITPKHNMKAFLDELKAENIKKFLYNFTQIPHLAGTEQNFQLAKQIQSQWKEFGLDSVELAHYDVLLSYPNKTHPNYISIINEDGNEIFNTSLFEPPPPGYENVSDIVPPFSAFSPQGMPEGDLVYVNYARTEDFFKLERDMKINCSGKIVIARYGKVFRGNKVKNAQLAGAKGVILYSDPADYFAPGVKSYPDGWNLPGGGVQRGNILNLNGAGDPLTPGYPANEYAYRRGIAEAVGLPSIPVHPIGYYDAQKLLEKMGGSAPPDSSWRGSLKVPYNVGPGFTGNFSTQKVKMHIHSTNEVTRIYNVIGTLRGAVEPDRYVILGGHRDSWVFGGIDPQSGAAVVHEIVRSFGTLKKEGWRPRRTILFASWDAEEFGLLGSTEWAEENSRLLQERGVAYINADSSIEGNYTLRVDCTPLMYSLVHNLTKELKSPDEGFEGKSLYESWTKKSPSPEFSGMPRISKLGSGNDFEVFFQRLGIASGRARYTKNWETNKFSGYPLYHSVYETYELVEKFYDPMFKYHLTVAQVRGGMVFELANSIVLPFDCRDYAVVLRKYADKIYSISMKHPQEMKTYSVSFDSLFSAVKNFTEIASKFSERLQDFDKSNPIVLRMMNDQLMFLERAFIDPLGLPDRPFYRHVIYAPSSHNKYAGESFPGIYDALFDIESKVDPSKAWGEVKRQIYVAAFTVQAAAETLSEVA
Experimental: Plate was pre-coated with 1 μg/mL THE™ His Tag Antibody overnight in a refrigerator set to 4° C. After blocking with 200 μL of 1×PBS/2% BSA for 1 hour, the plates were washed with 1×PBST for three times, then 0.5 g/mL human PSMA ECD protein diluted in 1×PBS/2% BSA was added in a volume of 50 μL/well to the plate and incubated for 1 hour at ambient temperature. […] After washing the plates with 1×PBST for three times, 50 μL/well of HRP-labeled goat anti-human IgG antibody (1:5000 diluted in 1×PBS/2% BSA) were added into the plate and incubated for 1 hour at ambient temperature. After washing the plates with 1×PBST for six times, the color was developed by dispensing 50 μL/well of TMB substrate for 4-8 minutes, and then the reaction was stopped by adding 50 μL/well of 2M HCl. The absorbance was read at 450 nm using a microplate reader. The binding EC50 was calculated by GraphPad Prism through plotting antibody concentration (x-axis) versus OD450 value (y-axis) and analyzing as: Nonlinear regression (curve fit)-log (agonist) vs. response-Variable slope (four parameters).

[4] = molecular target: T4, full-length cynomolgus PSMA on Flp-in CHO cells (WBP3xx042-FlpinCHO.cPro1.B7) (cynomolgus, UniProt A0A2K5VNZ0 1-750); experiment: flow cytometry on cynomolgus PSMA-expressing CHO cells
T4 construct: whole, on cells; also called Cyno PSMA+ CHO cells; FlpInCHO-cyno PSMA
Experimental: (§1) After washing the cells twice with 1×PBS/1% BSA, Alexa fluor 647-labeled goat anti-human antibody (1:500 diluted with 1×PBS/1% BSA) was added into the cells and incubated in a refrigerator set to 4° C. for 0.5 hour in the dark. After washing the cells twice with 1×PBS/1% BSA, the mean fluorescence intensity (MFI) of the cells was measured by a flow cytometer and analyzed by FLOWJO.

[5] = molecular target: T5, human PSMA on human prostate cancer cells (LNCaP, C4-2, 22Rv1) (human, UniProt Q04609 1-750); experiment: flow cytometry on LNCaP cells
T5 construct: whole, on cells; also called human PSMA-expressing LNCaP cells; C4-2 (PSMA High)
T5 sequence (Q04609 whole entry): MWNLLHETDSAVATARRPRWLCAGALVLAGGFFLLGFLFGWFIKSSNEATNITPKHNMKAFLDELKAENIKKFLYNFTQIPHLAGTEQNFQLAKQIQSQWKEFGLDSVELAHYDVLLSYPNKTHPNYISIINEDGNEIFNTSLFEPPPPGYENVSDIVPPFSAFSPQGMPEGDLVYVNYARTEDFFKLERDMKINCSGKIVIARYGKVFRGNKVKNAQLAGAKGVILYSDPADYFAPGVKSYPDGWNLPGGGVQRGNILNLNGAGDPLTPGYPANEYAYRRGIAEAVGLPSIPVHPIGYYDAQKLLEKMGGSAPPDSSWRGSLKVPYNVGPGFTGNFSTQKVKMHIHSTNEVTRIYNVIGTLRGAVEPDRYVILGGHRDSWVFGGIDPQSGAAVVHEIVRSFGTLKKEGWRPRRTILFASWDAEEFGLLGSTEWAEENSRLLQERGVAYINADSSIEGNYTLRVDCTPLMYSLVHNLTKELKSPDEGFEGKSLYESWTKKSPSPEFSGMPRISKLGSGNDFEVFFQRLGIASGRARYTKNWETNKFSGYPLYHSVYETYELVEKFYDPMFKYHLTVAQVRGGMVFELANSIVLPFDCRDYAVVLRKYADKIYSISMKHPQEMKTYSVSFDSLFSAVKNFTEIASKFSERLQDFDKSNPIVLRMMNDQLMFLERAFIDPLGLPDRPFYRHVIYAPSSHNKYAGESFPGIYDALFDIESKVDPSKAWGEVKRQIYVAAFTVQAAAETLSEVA
Experimental: as §1, with “FLOWJO. The binding EC50 was calculated by GraphPad Prism through plotting antibody concentration (x-axis) versus MFI (y-axis) and analyzing as: Nonlinear regression (curve fit)-log (agonist) vs. response-Variable slope (four parameters).” for “FLOWJO.”

Cyno PSMA.ECD.His (Acro) [6] = molecular target: T2, Cyno PSMA.ECD.His (Acro); experiment: SPR (Biacore 8K), antibody captured by anti-human IgG Fc, PSMA injected, 1:1 model
Experimental: (§2) Each antibody was captured on an anti-human IgG Fc antibody immobilized CM5 sensor chip (Cytiva). Human and cynomolgus PSMA at different concentrations were injected over the sensor chip at a flow rate of 30 μL/min for an association phase of 120-180 s, followed by 600-3600 s dissociation. The chip was regenerated by 10 mM glycine (pH 1.5) after each binding cycle.
(§3) The sensorgrams of blank surface and buffer channel were subtracted from the test sensorgrams. The experimental data was fitted by 1:1 binding model. Molecular weight of 81.4 and 82.7 kDa were used to calculate the molar concentration of human and cynomolgus PSMA.

[7] = molecular target: T3, Human PSMA.ECD.His (Acro); experiment: as above
Experimental: as §2, §3

T1 sequence (O35409 45-752): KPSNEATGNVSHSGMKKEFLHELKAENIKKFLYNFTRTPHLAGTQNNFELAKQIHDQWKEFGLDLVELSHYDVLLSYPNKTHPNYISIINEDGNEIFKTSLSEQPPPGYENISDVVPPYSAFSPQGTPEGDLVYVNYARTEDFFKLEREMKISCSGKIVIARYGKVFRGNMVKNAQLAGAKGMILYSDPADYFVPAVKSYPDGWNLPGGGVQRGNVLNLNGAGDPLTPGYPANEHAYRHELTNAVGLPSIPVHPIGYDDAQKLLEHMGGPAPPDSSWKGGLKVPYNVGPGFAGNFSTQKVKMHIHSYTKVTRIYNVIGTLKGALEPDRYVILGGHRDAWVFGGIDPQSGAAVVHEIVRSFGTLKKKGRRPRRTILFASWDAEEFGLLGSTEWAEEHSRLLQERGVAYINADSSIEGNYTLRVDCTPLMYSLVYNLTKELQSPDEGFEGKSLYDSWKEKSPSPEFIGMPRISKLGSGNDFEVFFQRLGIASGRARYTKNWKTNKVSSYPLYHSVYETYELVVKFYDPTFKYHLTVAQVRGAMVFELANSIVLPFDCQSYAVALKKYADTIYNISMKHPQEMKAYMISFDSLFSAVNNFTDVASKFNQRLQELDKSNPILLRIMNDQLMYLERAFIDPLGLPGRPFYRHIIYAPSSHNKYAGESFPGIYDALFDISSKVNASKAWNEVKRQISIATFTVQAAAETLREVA

B1: W305042-1.135.2-uIgG1L (antibody, V domains shown)
VH: EVQLVQSGAEVKKPGESLKISCKASGYSFTTYWIGWVRQMPGKGLELMGIIYPYDSDTRYSPSFQGQVTISADKSINTAYLQWSSLKASDTAMYYCARITGGYLFDYWGQGILVTVSS
VL: QSALTQPPSASGSPGQSVTISCTGTSSDVGGYNYVSWYQQHPGKAPKLMIYEVTKRPSGVPDRFSGSKSGNTASLTVSGLQAEDEADYYCTSYAGSNKYVFGTGTKVTVLG
notes: Fully human anti-PSMA monoclonal antibody, human IgG1 with lambda light chain; also called WBP305042; W305042-1.135.2-uIgGIL
B1 was tested, and the EC50 [1] was 0.026 nM, the EC50 (Cyno PSMA.ECD.His (Acro) [2]) was 0.006 nM and the EC50 [3] was 0.017 nM. For the same binder, the EC50 [4] was 2.25 nM, the EC50 [5] was 0.25 nM and the Kd (Cyno PSMA.ECD.His (Acro) [6]) was 2.84 nM. The koff (Cyno PSMA.ECD.His (Acro) [6]) was 0.000584 s⁻¹, the kon (Cyno PSMA.ECD.His (Acro) [6]) was 206000 M⁻¹ s⁻¹ and the Kd [7] was 0.0294 nM. The koff [7] was 1.12e-05 s⁻¹ and the kon [7] was 381000 M⁻¹ s⁻¹.
